We go through 6 molecules from patent US20170081417A1 (Kyowa Kirin, published 2017).

Experiment [1] has as its target T1, human OX40 (CD134), full length, expressed on cells (activated human T cells); EL4-OX40 and CHO-OX40 … (human, UniProt P43489 29-277).
T1 sequence: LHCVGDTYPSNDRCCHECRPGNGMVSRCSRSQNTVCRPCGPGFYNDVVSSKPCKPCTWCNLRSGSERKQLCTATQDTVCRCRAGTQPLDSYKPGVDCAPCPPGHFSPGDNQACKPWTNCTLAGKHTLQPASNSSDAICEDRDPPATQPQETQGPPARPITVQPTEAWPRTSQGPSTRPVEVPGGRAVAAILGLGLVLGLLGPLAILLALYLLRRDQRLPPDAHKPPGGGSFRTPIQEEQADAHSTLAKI
Nature of the experiment: cell-based or functional assay.

For another experiment, the target named is T2, human OX40 peptide 112A (human, also: conjugated to KLH via maleimide linker).
T2 peptide: RPAGPGFYNDVVSSKPC
As to the kind of experiment: ELISA on coated KLH-conjugated peptide. As for the experimental part: (§1) Antibody titers, specificity, and production by hybridomas were determined by ELISA. In brief, 96 well flat bottom plates were coated with 50 μl of hOX40:hFc at 5 μg/ml in carbonate buffer (pH 9.4) overnight at 4° C. or at 37° C. for one hour. After washing twice with PBS/0.1% Tween 20, plates were blocked with PBS/1% BSA/0.1% Tween20 at 37° C. for one hour. The serum, supernatant, or purified antibody was diluted in blocking buffer, added to the wells, and the plates were incubated for one hour at 37° C. The plates were washed four times with PBS/0.1% Tween 20 and the peroxidase conjugated sheep anti-human kappa detection antibody (The Binding Site, Birmigham, UK) was added at a dilution of 1:2000. Following one hour incubation at 37° C., the plates were washed and the TMB (Sigma) substrate was added and incubated at room temperature for ten to thirty minutes. The reaction was stopped with H₂SO₄ (LabChem) and the optical density was measured at 450 nm by a microplate reader.
(§2) The peptides were generated by A & A Lab, LLC and conjugated to keyhole limpet hemocyanin (“KLH”) with a maleimide linker following the manufacturer's instructions (Pierce). The peptides were coated at 10 μg/ml in carbonate buffer to 96 well Maxisorp ELISA plates (Nunc) at 4° C. overnight. The plate was washed with PBS/0.1% Tween 20 and then blocked with Casein buffer (Pierce) for three hours at room temperature. Candidate antibodies were added at 10 μg/ml diluted in 10% Casein in PBS/0.1% Tween 20. The remainder of the ELISA was performed as described for the OX40 specific antibody detection ELISA.
(In general: ELISA stands for enzyme-linked immunosorbent assay.)

The target in another experiment is T3, human OX40 peptide 112B (human, also: conjugated to KLH via maleimide linker).
T3 peptide: RAGTQPLDSYKPGVDC
Nature of the experiment: ELISA on coated KLH-conjugated peptide. Here is the method:
as §1, §2

Another experiment has as its target T4, human OX40 peptide 112C (human, also: conjugated to KLH via maleimide linker).
T4 peptide: LAGKHTLQPASNSSDAIC
As to the kind of experiment: ELISA on coated KLH-conjugated peptide. As for the experimental part: as §1, §2

The target in experiment [2] is T5, human OX40 extracellular domain fused to the Fc portion of human IgG1 (hOX40:hFc) (human).
T5 construct: Made in Tn5 insect cells; also called OX40-hIgG1; human OX40:hIgG1 fusion protein
Nature of the experiment: ELISA, OX40L-FLAG binding to coated hOX40:hFc, anti-FLAG-HRP. As for the experimental part:
(§3) The ability of 112F32, 112V8, 112Y131, 112Y55, and 112Z5 to block soluble hOX40L binding to coated hOX40:hFc fusion protein was tested using an ELISA protocol (FIG. 5A, Table 3). The plates were coated with hOX40:hFc and after blocking non-specific sites the anti-OX40 antibodies were allowed to bind. Without washing OX40L-FLAG was added to the wells. Bound ligand was detected with anti-FLAG-HRP secondary antibody. Percent inhibition was determined using the following formula (100−(OD sample/OD maximum OX40L binding))*100. 112V8, 112Y55, and 112Y131 prevented 85% of the binding of soluble OX40L to hOX40:hFc. 112F32 prevented approximately 70% of the binding of soluble hOX40L to hOX40:hFc and 112Z5 blocked 67% of the maximal binding.

The target of experiment [3] is T5, human OX40 extracellular domain fused …. As to the kind of experiment: ELISA, blocking of OX40L-FLAG binding to coated hOX40:hFc. As for the experimental part:
as §3

Experiment [4] concerns the target T1, human OX40 (CD134), full length, …. As to the kind of experiment: flow cytometry titration on activated human T cells, anti-human IgG-PE. Here is the method:
(§4) Following twenty minute incubation on ice, the cells were washed once and fixed ten minutes with 1% paraformaldehyde. After a final wash the cells were resuspended in staining buffer and the samples were acquired using FACScan or FACS Calibur flow cytometers (Becton Dickinson Biosciences, Palo Alto, Calif.), and the data were analyzed using Cellquest (Becton Dickinson Biosciences) or Flow Jo (TreeStar, Inc., San Carlos, Calif.) software. The activated T cells were also stained with mouse anti-human OX40 antibody L106 (Becton Dickinson), which was directly conjugated to phycoerythrin or whose binding was detected with anti-mouse IgG-PE (Southern Biotechnology Associates.) OX40L Blocking Assays: To determine if the anti-human OX40 antibodies could block OX40L binding to soluble OX40 both ELISA and flow cytometric protocols were used. In the ELISA 96 well Nunc flat bottom plates were coated with recombinant soluble hOX40:hFc at 2 μg/ml in carbonate buffer (pH9.4) for one hour at 37° C. The plates were washed with PBS/0.1% Tween 20 and Superblock (Pierce) was added to the wells to block non-specific binding. The test antibodies were diluted to 1 μg/ml in PBS/Tween and added to the plates. After one hour incubation at 37° C., FLAG tagged recombinant soluble human OX40L (Alexis Biochemicals, San Diego, Calif.) was added to the appropriate wells without washing out the anti-OX40 antibodies. Following one hour incubation, the plates were washed and an anti-FLAG-peroxidase conjugated antibody (Sigma) was added to the wells for one hour at 37° C. The TMB substrate was added, after ten minutes the reaction was stopped with H₂SO₄, and the results were read at 450 nm using a microplate reader. In the flow cytometric assay, human CD4+ T cells were purified and activated with PHA+IL2 for two days. The cells were washed and resuspended in staining buffer and then incubated with increasing amounts of human anti-human OX40 antibodies for twenty minutes on ice, from 0.005-50 μg/ml. Soluble recombinant OX40L-FLAG was then added to the cells. The cells were washed and incubated with anti-FLAG conjugated to PE (Sigma). After another wash, the cells were fixed with 1% paraformaldehyde and analyzed on a FACScan or FACScalibur.
On the technique in general: A flow cytometer gives signals particle by particle.

Experiment [5] has the same target. As to the kind of experiment: flow cytometry, blocking of OX40L-FLAG binding to activated human T cells.
Text: as §4, with “The” for “Following twenty minute incubation on ice, the cells were washed once and fixed ten minutes with 1% paraformaldehyde. After a final wash the cells were resuspended in staining buffer and the samples were acquired using FACScan or FACS Calibur flow cytometers (Becton Dickinson Biosciences, Palo Alto, Calif.), and the data were analyzed using Cellquest (Becton Dickinson Biosciences) or Flow Jo (TreeStar, Inc., San Carlos, Calif.) software. The”
Slightly different results were obtained when a flow cytometric based assay was used to monitor blockade of soluble OX40L binding to activated human T cells that express OX40 (FIG. 5B). Activated human T cells were labeled with anti-OX40 antibodies followed by soluble flag tagged-human OX40L. Binding of OX40L was detected with anti-FLAG-PE antibody. Percent inhibition was determined using the same formula, i.e., (100−(sample/maximum binding))*100.

The target is the same in experiment [6]. As to the kind of experiment: flow cytometry, blocking of OX40L-FLAG binding to activated human T cells; footnote: not inhibitory at 50 µg/ml. An excerpt:
The activated T cells were also stained with mouse anti-human OX40 antibody L106 (Becton Dickinson), which was directly conjugated to phycoerythrin or whose binding was detected with anti-mouse IgG-PE (Southern Biotechnology Associates.) OX40L Blocking Assays: To determine if the anti-human OX40 antibodies could block OX40L binding to soluble OX40 both ELISA and flow cytometric protocols were used. In the ELISA 96 well Nunc flat bottom plates were coated with recombinant soluble hOX40:hFc at 2 μg/ml in carbonate buffer (pH9.4) for one hour at 37° C. The plates were washed with PBS/0.1% Tween 20 and Superblock (Pierce) was added to the wells to block non-specific binding. The test antibodies were diluted to 1 μg/ml in PBS/Tween and added to the plates. […] The TMB substrate was added, after ten minutes the reaction was stopped with H₂SO₄, and the results were read at 450 nm using a microplate reader. […] After another wash, the cells were fixed with 1% paraformaldehyde and analyzed on a FACScan or FACScalibur.
Slightly different results were obtained when a flow cytometric based assay was used to monitor blockade of soluble OX40L binding to activated human T cells that express OX40 (FIG. 5B). […] Binding of OX40L was detected with anti-FLAG-PE antibody. Percent inhibition was determined using the same formula, i.e., (100−(sample/maximum binding))*100.

No end group written: not given here. A value given as a limit tells only on which side of the number the result lay.

B1: recombinant 112V8G1 antibody (112V8 variable regions in human IgG1) (antibody, V domains shown)
VH: QITLKESGPTLVKPKQTLTLTCTFSGFSLSTSGMGVGWIRQPPGKALEWLAVIYWDDHQLYSPSLKSRLTITKDTSKNQVVLTMTNMDPVDTATYYCAHRRGAFQHWGQGTLVTVSS
VL: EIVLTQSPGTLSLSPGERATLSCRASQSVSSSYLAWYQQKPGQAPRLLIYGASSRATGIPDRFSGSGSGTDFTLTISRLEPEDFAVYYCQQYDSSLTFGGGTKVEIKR
As to B1, the “ADCC % Lysis at 10 µg/ml” value in experiment [1] was 55.6%.

B2: 112V8 human anti-human OX40 monoclonal antibody (hybridoma ATCC No. PTA-7219) (antibody, IgG4, V domains shown)
VH: B1 VH
VL: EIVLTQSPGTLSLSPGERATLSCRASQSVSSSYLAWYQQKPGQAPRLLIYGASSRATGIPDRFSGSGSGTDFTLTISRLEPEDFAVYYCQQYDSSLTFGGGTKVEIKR
In general, IC50 refers to the point on the concentration scale where inhibition reaches its midpoint. In general, Kd refers to the concentration at which binding is half-saturated. A high value points to weaker binding. In the case of B2, the binding result in the experiment with human OX40 peptide 112A, in the experiment with human OX40 peptide 112B and in the experiment with human OX40 peptide 112C was “no binding (tested: 10 µg/ml)” throughout. Besides, the “percent inhibition of OX40L binding” value in experiment [2] is 85%. Moreover, the values for the IC50 in experiment [3] and in experiment [5] were 0.051 µg/mL and 0.62 µg/mL, respectively. In experiment [4], the “BMAX Geo Mean” value was 181 geometric mean fluorescence. This molecule yielded a Kd in experiment [4] of 36 nM.

B3: recombinant 112V8 IgG4PE antibody (112V8G4PE) (antibody, V domains shown)
VH: B1 VH
VL: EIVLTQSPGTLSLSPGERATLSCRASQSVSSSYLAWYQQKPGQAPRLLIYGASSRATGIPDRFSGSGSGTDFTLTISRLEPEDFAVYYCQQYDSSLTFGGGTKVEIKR
For B3, the “ADCC % Lysis at 10 µg/ml” value in experiment [1] is 18%.

B4: 112Z5 human anti-human OX40 monoclonal antibody (hybridoma ATCC No. PTA-7216) (antibody, V domains shown)
VH: VVSTQSTGGGLVQPGRSLRLSCAASGFTLDDYGMHWVRQAPGKGLEWVSGISWNSDSIGYVDSVKGRFTISRDNAKNSLYLQMNSLRVEDTALYYCVKDISGWYSFDYWGQGTLVTVSS
VL: EIVLTQSPATLSLSPGERATLSCRASQSVSSYLAWYQQKPGQAPRLLIYDASNRATGIPARFSGSGSGTDFTLTISSLEPEDFAVYYCQQRSNWPITFGQGTRLEIK
Consider B4, for which the “ADCC % Lysis at 10 µg/ml” value in [1] came out at 35%. Moreover, the “percent inhibition of OX40L binding” value in experiment [2] was found to be 67%. In experiment [3], this molecule gave an IC50 of 0.081 µg/mL. In experiment [4], the “BMAX Geo Mean” value was 118 geometric mean fluorescence and the Kd was found to be 11 nM. Also, the IC50 in experiment [5] stood at 14.7 µg/mL.

B5: recombinant 112F32G1 antibody (112F32 variable regions in human IgG1) (antibody, V domains shown)
VH: GVQLVESGGGLVQPGGSLRLSCAASGFTFSSYSMNWVRQAPGKGLEWVSYISSSSSTIYYADSVKGRFTISRDNAKNSLYLQMNSLRDEDTAVYYCARGVYHNGWSFFDYWGQGTLLTVSS
VL: DIQMTQSPSSLSASVGNRVTITCRASQDISSWLAWYQQKPEKAPKSLIYAASSLQSGVPSRFSGSGSGTDFTLTISSLQPEDFATYYCQQYNSYPLTFGQGTRLEIKR
On to B5, for which the “ADCC % Lysis at 10 µg/ml” value in [1] worked out at 37%.

B6: 112F32 human anti-human OX40 monoclonal antibody (hybridoma ATCC No. PTA-7217) (antibody, V domains shown)
VH: B5 VH
VL: B5 VL
Consider B6, for which the binding result in the experiment with human OX40 peptide 112A, with human OX40 peptide 112B and with human OX40 peptide 112C was “no binding (tested: 10 µg/ml)” each time. Also, in experiment [2], the “percent inhibition of OX40L binding” value is approximately 70%. Also, the results for the IC50 in [3] and in [6] were 0.65 µg/mL and more than 50 µg/mL, respectively. Further, the “BMAX Geo Mean” value in [4] is 104 geometric mean fluorescence. In experiment [4], this molecule yielded a Kd of 13 nM.
